Reference: US20240002516A1 (4B TECHNOLOGIES SUZHOU, published 2024)

Tests used:
[1] = biological target: T1, human TrkA on CellSensor TrkA-NFAT-bla CHO-K1 cells (human, UniProt P04629 33-796); assay: cell-based or functional assay
[2] = biological target: T2, extracellular domain (ECD) of human TrkA protein, N-terminal flag tag and C-terminal His tag (PHA) (human, UniProt P04629 33-423); assay: BLI (Octet Red384), as in Example 4
T2 construct: Made in 293-F cells and purified by IMAC; also called TrkA ECD protein; TrkA (ECD); not shown: flag tag at the N-terminus (after the signal peptide); His tag at the C-terminus
T2 sequence (P04629 33-423): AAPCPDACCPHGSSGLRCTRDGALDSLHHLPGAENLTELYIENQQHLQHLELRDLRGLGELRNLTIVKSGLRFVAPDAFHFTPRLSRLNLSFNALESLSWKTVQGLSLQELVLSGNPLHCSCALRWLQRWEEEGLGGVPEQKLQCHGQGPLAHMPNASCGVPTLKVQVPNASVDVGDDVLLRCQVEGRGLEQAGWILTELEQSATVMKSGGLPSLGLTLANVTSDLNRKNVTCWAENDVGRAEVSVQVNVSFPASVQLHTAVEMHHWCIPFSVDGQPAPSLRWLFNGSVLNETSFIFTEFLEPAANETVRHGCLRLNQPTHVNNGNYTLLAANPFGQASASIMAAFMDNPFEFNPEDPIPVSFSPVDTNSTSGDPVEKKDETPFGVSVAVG
Method: (§1) The bio-layer interferometry (BLI) method was used to determine the affinities of the antibodies, employing Octet Red384. Briefly, anti-human Fc-coated biosensor AHQ tips (ForteBio) were put into PBS with 0.1% w/v bovine serum albumin and 0.05% Tween-20 for a minimum of 10 min in the pre-wetting plate. The purified antibodies (100 nM in PBS with 0.1% bovine serum albumin and 0.05% Tween-20 (assay buffer)) were captured on AHQ biosensors (ForteBio) at a level of about 1 nm. The loaded biosensors were washed with an assay buffer to remove any unbound protein. Then, the association rates, dissociation rates and response were measured, using an antigen of 100 nM (in PBS with 0.1% bovine serum albumin and 0.05% Tween-20).
Two rounds of humanizations were further performed. […] In the second round, many other variants were further constructed (including several mutations in the CDR sequences). Quickchange based site-directed mutagenesis or overlap PCR were performed to create expression plasmid of new versions of 2nd round humanized antibodies. All recombinant antibodies were expressed and purified as described in Example 1, then measured antigen binding affinity using BLI technology with the Octet Red384 instrument as mentioned above. To compare the functional activity of humanized antibodies with chimeric antibodies, NFAT assay was also performed.

[3] = biological target: T1, human TrkA on CellSensor TrkA-NFAT-bla …; assay: FACS on cells expressing human TrkA (FIG. 5A)
[4] = biological target: T2, extracellular domain (ECD) of human …; assay: affinity after affinity maturation; method not stated in Example 5
[5] = biological target: T2, extracellular domain (ECD) of human …; assay: BLI (Octet Red384), antibody captured on anti-human Fc AHQ tips, antigen 100 nM
Method: as §1

[6] = biological target: T2, extracellular domain (ECD) of human …; assay: affinity after affinity maturation; method not stated in Example 5; measured in the affinity maturation series of Example 5, not the humanization series of the 11th table

T1 sequence (P04629 33-796 limits assumed, form in doubt): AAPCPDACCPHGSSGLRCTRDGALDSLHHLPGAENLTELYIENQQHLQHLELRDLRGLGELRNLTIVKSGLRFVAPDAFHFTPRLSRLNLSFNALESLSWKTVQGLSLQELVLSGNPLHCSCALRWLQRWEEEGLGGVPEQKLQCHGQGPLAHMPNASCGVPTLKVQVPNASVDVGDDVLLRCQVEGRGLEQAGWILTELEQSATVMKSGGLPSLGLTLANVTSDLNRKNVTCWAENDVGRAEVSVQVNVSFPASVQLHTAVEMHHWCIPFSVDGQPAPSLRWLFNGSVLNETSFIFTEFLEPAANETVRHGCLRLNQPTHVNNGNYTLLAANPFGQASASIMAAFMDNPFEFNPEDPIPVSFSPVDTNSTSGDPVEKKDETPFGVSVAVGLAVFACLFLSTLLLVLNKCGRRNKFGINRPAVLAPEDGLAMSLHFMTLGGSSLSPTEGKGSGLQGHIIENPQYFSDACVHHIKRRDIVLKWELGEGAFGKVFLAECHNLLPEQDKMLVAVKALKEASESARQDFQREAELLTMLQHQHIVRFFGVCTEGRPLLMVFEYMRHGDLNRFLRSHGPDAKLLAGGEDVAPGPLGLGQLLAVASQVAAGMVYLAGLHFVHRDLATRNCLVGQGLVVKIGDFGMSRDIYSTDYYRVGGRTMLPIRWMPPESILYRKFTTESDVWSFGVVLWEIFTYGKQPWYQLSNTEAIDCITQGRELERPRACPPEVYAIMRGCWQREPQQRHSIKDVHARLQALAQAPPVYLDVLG

B1: chi-PHD49 (antibody, V domains shown)
VH: QVQLQQSGAELARPGASVKLSCKASGYTFSSYWMQWVKQRPGQGLEWIGAIYPGDDDTIYTQKFKGKATLTADKSSSTAYMQLSSLASEDSAVYYCARNYDYQAWFAYWGQGTLVTVSA
VL: QIVLTQSPALMSASPGEKVTMTCSASSSVSYMYWYQQKPRSSPKPWIYLTSNLASGVPARFSGSGSGTSYSLTISSMEAEDAATYYCQQWSSNPLTFGAGTKLELK
notes: Chimeric: human IgG4 / human kappa constant regions (pCDNA3.4-hIgG4 and pCDNA3.4-hKappa vectors)
With B1 the “EC50 (so labelled in the drawn table; a falling inhibition curve, the text calls this value IC50); inhibition of NGF-induced TrkA activation in TrkA-NFAT-bla CHO-K1 reporter cells” value [1] was 0.793 nM, the “Top; inhibition of NGF-induced TrkA activation in TrkA-NFAT-bla CHO-K1 reporter cells” value [1] was 1.04 Response Ratio and the Kd [2] was 3.62 nM. For the same binder, the koff [2] was 0.000827 s⁻¹, the kon [2] was 229000 M⁻¹ s⁻¹ and the EC50 [3] was 0.157 µg/mL. It also gave a koff [4] of 0.000665 s⁻¹, a kon [4] of 219000 M⁻¹ s⁻¹ and a Kd [5] of 1.79 nM. The koff [5] was 0.000603 s⁻¹, the kon [5] was 337000 M⁻¹ s⁻¹ and the Kd [6] was 3.04 nM.
